Laboratory results: paper PMC2696799 (European journal of immunology, 2009)

What was measured:
[1] = target: CD47 ECD (Homo sapiens) (UniProt Q08722); details: cited from earlier work
[2] = target: CD200R ECD (Homo sapiens) (UniProt Q8TD46); details: cited from earlier work
[3] = target: CD200R ECD (Mus musculus) (UniProt Q9ES57); details: cited from earlier work
[4] = target: CD200RLa ECD (Mus musculus) (UniProt Q6XJV4); details: cited from earlier work
[5] = target: CD58 ECD (Homo sapiens) (UniProt P19256); details: cited from earlier work
Chain of CD58 ECD (Homo sapiens) (P19256 29-215): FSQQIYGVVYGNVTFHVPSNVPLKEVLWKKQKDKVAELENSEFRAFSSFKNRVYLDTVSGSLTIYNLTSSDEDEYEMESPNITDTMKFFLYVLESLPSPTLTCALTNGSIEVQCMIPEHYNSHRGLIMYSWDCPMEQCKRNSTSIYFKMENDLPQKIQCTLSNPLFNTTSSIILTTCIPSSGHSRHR

[6] = target: T1, mCD200R, immobilised (mouse, UniProt Q9ES57 26-238); assay: SPR
T1 sequence (looked up): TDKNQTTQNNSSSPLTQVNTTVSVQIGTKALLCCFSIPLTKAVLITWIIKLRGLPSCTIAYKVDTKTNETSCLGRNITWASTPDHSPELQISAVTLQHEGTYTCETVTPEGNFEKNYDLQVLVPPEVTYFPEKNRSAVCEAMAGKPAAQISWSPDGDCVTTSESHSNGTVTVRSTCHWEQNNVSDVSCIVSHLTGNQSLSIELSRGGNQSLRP

[7] = target: T2, mCD200RLa/rCD4d3+4, immobilised (mouse, UniProt Q6XJV4 26-241, biotin); assay: SPR
T2 sequence (looked up): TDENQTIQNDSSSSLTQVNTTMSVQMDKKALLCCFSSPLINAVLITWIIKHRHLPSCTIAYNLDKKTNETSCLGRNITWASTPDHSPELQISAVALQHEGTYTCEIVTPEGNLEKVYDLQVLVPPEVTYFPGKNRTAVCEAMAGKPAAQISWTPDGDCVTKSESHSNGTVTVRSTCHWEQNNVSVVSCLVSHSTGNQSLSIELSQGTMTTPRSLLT

[8] = target: T3, Acid-soluble human collagen type I (from human placenta) (human, UniProt P02452 162-1218; P08123 80-1119); assay: SPR
T3 sequence (P02452 162-1218, chain 1 of 2): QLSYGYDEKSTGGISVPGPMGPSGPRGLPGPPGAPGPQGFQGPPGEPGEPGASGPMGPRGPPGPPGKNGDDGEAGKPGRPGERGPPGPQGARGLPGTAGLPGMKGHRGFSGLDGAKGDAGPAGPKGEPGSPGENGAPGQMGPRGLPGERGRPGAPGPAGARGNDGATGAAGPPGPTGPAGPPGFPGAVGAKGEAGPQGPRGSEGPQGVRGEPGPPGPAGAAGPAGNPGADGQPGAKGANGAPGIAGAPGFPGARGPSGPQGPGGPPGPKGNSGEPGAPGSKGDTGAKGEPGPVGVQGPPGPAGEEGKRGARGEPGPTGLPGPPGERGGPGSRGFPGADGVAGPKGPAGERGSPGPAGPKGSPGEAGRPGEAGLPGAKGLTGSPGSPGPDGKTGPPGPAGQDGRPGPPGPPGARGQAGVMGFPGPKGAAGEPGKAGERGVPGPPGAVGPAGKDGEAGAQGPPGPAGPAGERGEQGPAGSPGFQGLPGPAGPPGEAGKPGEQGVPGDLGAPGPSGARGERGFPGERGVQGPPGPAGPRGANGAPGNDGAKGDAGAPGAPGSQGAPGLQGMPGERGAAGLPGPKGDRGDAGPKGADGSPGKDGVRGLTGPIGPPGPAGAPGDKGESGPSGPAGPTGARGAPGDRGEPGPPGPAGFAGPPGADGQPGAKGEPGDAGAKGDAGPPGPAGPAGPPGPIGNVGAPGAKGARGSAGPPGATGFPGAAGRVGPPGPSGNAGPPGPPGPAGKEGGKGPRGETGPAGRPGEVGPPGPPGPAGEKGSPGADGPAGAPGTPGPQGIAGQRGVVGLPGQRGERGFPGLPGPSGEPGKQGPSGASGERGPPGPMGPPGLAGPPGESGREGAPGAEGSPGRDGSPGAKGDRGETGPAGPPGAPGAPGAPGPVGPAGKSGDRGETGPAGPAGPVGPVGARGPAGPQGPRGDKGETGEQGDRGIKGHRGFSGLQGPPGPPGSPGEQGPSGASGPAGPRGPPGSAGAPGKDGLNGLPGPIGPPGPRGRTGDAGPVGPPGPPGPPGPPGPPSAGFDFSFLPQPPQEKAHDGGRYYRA
T3 sequence (P08123 80-1119, chain 2 of 2): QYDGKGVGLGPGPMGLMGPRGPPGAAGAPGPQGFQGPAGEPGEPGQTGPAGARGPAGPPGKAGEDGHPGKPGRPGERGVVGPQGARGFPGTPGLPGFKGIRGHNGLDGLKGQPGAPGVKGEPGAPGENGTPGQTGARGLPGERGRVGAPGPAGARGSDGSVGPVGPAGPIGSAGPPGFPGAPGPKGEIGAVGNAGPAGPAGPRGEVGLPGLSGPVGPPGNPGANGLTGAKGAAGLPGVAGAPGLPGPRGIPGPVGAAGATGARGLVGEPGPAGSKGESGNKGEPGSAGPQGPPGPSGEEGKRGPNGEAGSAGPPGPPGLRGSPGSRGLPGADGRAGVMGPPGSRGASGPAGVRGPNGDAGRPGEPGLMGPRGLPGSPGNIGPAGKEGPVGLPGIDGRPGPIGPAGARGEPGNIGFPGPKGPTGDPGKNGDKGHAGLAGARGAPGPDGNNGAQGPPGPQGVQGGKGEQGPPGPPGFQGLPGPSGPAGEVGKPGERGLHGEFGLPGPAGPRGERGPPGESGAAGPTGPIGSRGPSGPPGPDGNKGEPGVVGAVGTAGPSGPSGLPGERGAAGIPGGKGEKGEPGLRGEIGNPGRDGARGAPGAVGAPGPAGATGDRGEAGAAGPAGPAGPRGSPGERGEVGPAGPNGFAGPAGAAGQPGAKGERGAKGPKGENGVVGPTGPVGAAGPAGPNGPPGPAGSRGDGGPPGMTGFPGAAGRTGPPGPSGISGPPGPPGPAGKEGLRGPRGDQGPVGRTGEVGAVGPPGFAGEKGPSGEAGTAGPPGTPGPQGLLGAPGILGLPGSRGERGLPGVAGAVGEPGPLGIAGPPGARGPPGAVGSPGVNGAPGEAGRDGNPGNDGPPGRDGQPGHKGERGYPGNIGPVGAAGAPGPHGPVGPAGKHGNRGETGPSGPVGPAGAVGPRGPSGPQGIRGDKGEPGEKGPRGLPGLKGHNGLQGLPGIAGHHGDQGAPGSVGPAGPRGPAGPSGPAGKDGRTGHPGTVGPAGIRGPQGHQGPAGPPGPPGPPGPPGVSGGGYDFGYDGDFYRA

[9] = target: (GPO)10 triple-helical peptide, GCO(GPO)10GCOG-NH2; assay: SPR
[10] = target: T3, Acid-soluble human collagen type I …; assay: SPR; remark: listed apart in the source
[11] = target: the molecule itself; assay: SPR

Chain of CD200R ECD (Homo sapiens) (Q8TD46 25-265): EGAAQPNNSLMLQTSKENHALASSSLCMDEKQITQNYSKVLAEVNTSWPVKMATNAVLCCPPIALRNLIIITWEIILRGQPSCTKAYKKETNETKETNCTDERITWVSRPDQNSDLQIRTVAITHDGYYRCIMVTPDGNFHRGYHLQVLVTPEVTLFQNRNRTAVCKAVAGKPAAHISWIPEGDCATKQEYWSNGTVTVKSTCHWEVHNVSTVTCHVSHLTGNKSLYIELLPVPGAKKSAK
Chain of CD47 ECD (Homo sapiens) (Q08722 19-323): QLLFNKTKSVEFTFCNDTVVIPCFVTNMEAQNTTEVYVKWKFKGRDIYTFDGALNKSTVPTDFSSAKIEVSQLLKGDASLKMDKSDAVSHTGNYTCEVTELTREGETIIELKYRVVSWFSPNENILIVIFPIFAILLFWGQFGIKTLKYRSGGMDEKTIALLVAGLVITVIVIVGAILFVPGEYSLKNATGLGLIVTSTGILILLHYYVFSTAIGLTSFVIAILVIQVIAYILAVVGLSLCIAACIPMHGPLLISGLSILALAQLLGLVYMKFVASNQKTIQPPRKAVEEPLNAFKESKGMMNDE

In the case of SIRPα ECD (from UniProt P78324), the Kd [1] is given as 2 µM.

For CD200 ECD (from UniProt P41217), the Kd [2] is given as 2 µM.

In the case of CD200 ECD (from UniProt O54901), the Kd [3] is listed as 4 µM and the Kd [4] is listed as over 500 µM.

For CD2 ECD (from UniProt P06729), the Kd [5] is listed as 10 µM.

B1: mCD200/rCD4d3+4 coupled beads (domain or fragment, mouse, UniProt O54901 31-232, looked up)
chain: QVEVVTQDERKALHTTASLRCSLKTSQEPLIVTWQKKKAVSPENMVTYSKTHGVVIQPAYKDRINVTELGLWNSSITFWNTTLEDEGCYMCLFNTFGSQKVSGTACLTLYVQPIVHLHYNYFEDHLNITCSATARPAPAISWKGTGTGIENSTESHFHSNGTTSVTSILRVKDPKTQVGKEVICQVLYLGNVIDYKQSLDKG
modifications: biotin on the tag that can be biotinylated
B1 gave a response [6] of over 3000 RU and a response [7] of over 3000 RU.

B2: hLAIR-1/rCD4d3+4, biotinylated (on beads or on the chip) (domain or fragment, human, UniProt Q6GTX8 22-165, looked up)
chain: QEEDLPRPSISAEPGTVIPLGSHVTFVCRGPVGVQTFRLERDSRSTYNDTEDVSQASPSESEARFRIDSVREGNAGLYRCIYYKPPKWSEQSDYLELLVKESSGGPDSPDTEPGSSAGPTQRPSDNSHNEHAPASQGLKAEHLY
modifications: biotin (biotin ligase BirA) on the sequence near the C terminus
With B2 the response [8] was 2700 RU.

B3: mLAIR-1/rCD4d3+4, soluble monomeric (domain or fragment, mouse, UniProt Q8BG84 22-144, looked up)
chain: QEGSLPDITIFPNSSLMISQGTFVTVVCSYSDKHDLYNMVRLEKDGSTFMEKSTEPYKTEDEFEIGPVNETITGHYSCIYSKGITWSERSKTLELKVIKENVIQTPAPGPTSDTSWLKTYSIY
Work on B3 yielded a Kd [9] of 10 µM and a Kd [10] of 18 µM.

B4: mLilrb4/rCD4d3+4, soluble monomeric (domain or fragment, mouse, UniProt Q64281 24-238, looked up)
chain: GHLPKPIIWAEPGSVIAAYTSVITWCQGSWEAQYYHLYKEKSVNPWDTQVPLETRNKAKFNIPSMTTSYAGIYKCYYESAAGFSEHSDAMELVMTGAYENPSLSVYPSSNVTSGVSISFSCSSSIVFGRFILIQEGKHGLSWTLDSQHQANQPSYATFVLDAVTPNHNGTFRCYGYFRNEPQVWSKPSNSLDLMISETKDQSSTPTEDGLETYQK
With B4 the Kd [9] was 33 µM and the Kd [10] was 39 µM.

B5: mLilrb4/rCD4d3+4, biotinylated (on beads or on the chip) (domain or fragment, mouse, UniProt Q64281 24-238, looked up)
chain: B4 chain
modifications: biotin (biotin ligase BirA) on the sequence near the C terminus
With B5 the response [11] was 1750 RU.
